Biological target: FSH receptor on CHO-FSHR cells (Homo sapiens (Human)) (UniProt P23945)
Assay: cell-based or functional assay

Sequence of UniProt P23945 (P23945 18-695 limits assumed, form in doubt): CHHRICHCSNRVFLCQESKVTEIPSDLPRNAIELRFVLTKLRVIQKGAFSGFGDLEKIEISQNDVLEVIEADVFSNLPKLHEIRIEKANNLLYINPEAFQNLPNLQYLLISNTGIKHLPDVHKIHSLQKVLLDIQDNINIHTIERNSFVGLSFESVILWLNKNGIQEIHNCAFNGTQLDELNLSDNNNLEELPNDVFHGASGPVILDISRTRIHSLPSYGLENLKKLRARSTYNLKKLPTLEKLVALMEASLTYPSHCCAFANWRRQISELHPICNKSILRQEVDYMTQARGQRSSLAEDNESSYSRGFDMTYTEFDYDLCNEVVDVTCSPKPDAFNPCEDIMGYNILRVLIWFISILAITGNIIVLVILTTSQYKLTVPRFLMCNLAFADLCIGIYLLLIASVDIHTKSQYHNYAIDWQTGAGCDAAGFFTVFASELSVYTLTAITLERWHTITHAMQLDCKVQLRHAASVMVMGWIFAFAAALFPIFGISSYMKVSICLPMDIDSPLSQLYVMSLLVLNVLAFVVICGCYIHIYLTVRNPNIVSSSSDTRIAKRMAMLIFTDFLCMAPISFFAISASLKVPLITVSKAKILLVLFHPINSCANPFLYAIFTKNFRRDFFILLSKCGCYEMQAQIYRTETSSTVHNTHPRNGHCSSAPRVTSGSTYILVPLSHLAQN

EC50 (ng/ml), cAMP stimulation in CHO-FSHR cells: 4.15 ng/mL | Potency difference, cAMP stimulation in CHO-FSHR cells: 1.3 fold | Vmax (%), cAMP stimulation in CHO-FSHR cells: 99.3% | Vmax (pmol/ml), cAMP stimulation in CHO-FSHR cells: 293 pmol/mL
Substance: Elonva (ligand)
